The values that follow come from the nanobody polyreactivity screen of Harvey et al. (2022).

The series is described as follows: yeast display, Sf9 membrane polyspecificity reagent, FACS + sequencing; frameworks hold sequencing errors. The essentials:
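Nanobodies came from a synthetic yeast display library in Saccharomyces cerevisiae BJ5465, induced with galactose for 36–48 hours and stained for 1 hour at 4 °C with 10% biotinylated, detergent-solubilized Sf9 membrane reagent. Cells were enriched on streptavidin microbeads and then FACS-sorted, with low and high (top ~1%) gates set on anti-HA fluorescence for expression and streptavidin fluorescence for reagent binding. Each polyreactivity label reflects the gate a clone came from. Genes were amplified by colony PCR, sequenced by MiSeq 2 × 250 and filtered by CDR length.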
“QVQLVESGGGLVQAGGSLRLSCAASGGTFVANTMGWYRQAPGKERELVAAITWSGGRTYYADSVKGRFTISRDNAKNTVYLQMNSLKPEDTAVYYCNADYYRKAESSPEGYDYWGQGTQVTVSS”: the “polyreactivity (PSR sort gate)” value is listed as “high polyreactivity”.

As to “QVQLVESGGGLVQAGGSLRLSCAASGGTFVLNAMGWYRQAPGKERELVATISSGGGTDYADSVKGRFTISRDNAKNTVYLQMNSLKPEDTAVYYCNTDYILWGDYDYWGQGTQVTVSS”, the “polyreactivity (PSR sort gate)” value is recorded as “low polyreactivity”.

“QVQLVESGGGLVQAGGSLRLSCAASGGTFVTYAMGWYRQAPGKERELVAAITTGGSTYYADSVKGRFTISRDNAKNSVYLQMISLKPEDTAVYYCAAVYTGSGKRYYKGYYWGQGTQVTVSS”: the “polyreactivity (PSR sort gate)” value is listed as “low polyreactivity”.

Regarding “QVQLVESGGGLVQAGGSLRLSCAASGGTFVVYAMGWYRQAPGKEREFVAGISWGGGRTYYADSVKGRFTISRDNAKNPVYLQMNSLKPEDTAVYYCAVRREIQYYRKFDYWGQGTQVTVSS”, the “polyreactivity (PSR sort gate)” value is reported as “low polyreactivity”.

Regarding “QVQLVESGGGLVQAGGSLRLSCAASGGTFVYNAMGWYRQAPGKERELVAAIRVRGDTTYYADSVKGRFTISRDNAKNTVYLQMNSLKPEDTAVYYCAAYPDYSYYYWGQGTQVTVSS”, the “polyreactivity (PSR sort gate)” value is on record as “high polyreactivity”.

Regarding “QVQLVESGGGLVQAGGSLRLSCAASGGTFVYYAMGWYRQAPGKERELVAAISGSGGRTYYADSVKGRFTISRDNAKNTVYLQMNSLKPEDTAVYFCAAVHLNRYWGQGTQVTVSS”, the “polyreactivity (PSR sort gate)” value is given as “high polyreactivity”.

For the sequence “QVQLVESGGGLVQAGGSLRLSCAASGGTFVYYTMGWYRQAPGKERELVAAISGRGGRTYYADSVKGRFTISRDNAKQTVYLQMNSLKPEDPAVYYCTATQIGPYYLPFDSWGQGTQVTVSS”, the “polyreactivity (PSR sort gate)” value is “high polyreactivity”.

Regarding “QVQLVESGGGLVQAGGSLRLSCAASGGTFWIYAMGWYRQAPGKERELVAGISHGDSTYYADSVKGRFTISRDNAKNTVYLQMNSLKPEDTAVYYCARDYRNPPFAYEYWGQGTQVTVSS”, the “polyreactivity (PSR sort gate)” value is “low polyreactivity”.

On to “QVQLVESGGGLVQAGGSLRLSCAASGGTFWKYPMGWTRQAPGKERELVAAITWSGSSTYYADSVKGRFTISRDNAKNTVYLQMNSLKPEDTAVFYCAARYQPRKGAHYGYWGQGTQVTVSS”, for which the “polyreactivity (PSR sort gate)” value is reported as “high polyreactivity”.

Turning to “QVQLVESGGGLVQAGGSLRLSCAASGGTFWSYAMGLYRQAPGKEREFVAAITTSAGRTNFADSVKGRFTISRDNAKNTFYLQMNSLKPEDTAVYYCAARSAYPGLGYGFDYWGQGTQVTVSS”, the “polyreactivity (PSR sort gate)” value was “low polyreactivity”.

In the case of “QVQLVESGGGLVQAGGSLRLSCAASGGTFYGYAMGWYRQAPGKERELVAASNYRGGRTYYADSVKGRFTISRDNAKNTGYLQMNSLKPEDTAVYYCAATSYRLDGYDYWGQGTQVTVSS”, the “polyreactivity (PSR sort gate)” value was “high polyreactivity”.

As for “QVQLVESGGGLVQAGGSLRLSCAASGGTFYHNVMGWYRQAPGKERELVAAIRYSGGRTYYADSVKGRFTISRDNAKNTVYLQMNSQKPEDTAVYYCAVRSYYGPFGYWGQGTQVTVSS”, the “polyreactivity (PSR sort gate)” value is on record as “high polyreactivity”.

As to “QVQLVESGGGLVQAGGSLRLSCAASGGTFYHYAMGWYRQAPGKERELVAAISWGGGSTYYADSVKGRFTISRDNAKNTVYLQMNSLKPEHTAVYYCAARRGFRFRDYYWGQGTQVTVSS”, the “polyreactivity (PSR sort gate)” value is “high polyreactivity”.

As to “QVQLVESGGGLVQAGGSLRLSCAASGGTFYKYAMGWYRQAPGKERELVAAISRSGGSTYYADSVKGRFTISRDNAKNTVYLQMNSLKPEDTAVYYCNAYGSYWDFDYWGQGTQVTVSS”, the “polyreactivity (PSR sort gate)” value is reported as “high polyreactivity”.

Turning to “QVQLVESGGGLVQAGGSLRLSCAASGGTFYLNAMGWYRQAPGKERELVAAISKRSSTTYYADSVKGRFTISRDNAKNTVYLQMNSLKPEDTAVYYCAAEYFDWWVTYDYWGQGTQVTVSS”, the “polyreactivity (PSR sort gate)” value is “high polyreactivity”.

Take “QVQLVESGGGLVQAGGSLRLSCAASGGTFYPYAMGWYREAPGKEWELVAAISTSGGITYYADSVKGRFTISRDNAKNTVYLQMNSLKPEDTAVYYCAKVLRDYYTYYRWQYREFGYWGQGTQVTVSS”: the “polyreactivity (PSR sort gate)” value is “high polyreactivity”.
